Data from patent US20110027290A1 (Eli Lilly, published 2011).

Experiments:
[1] = molecular target: T1, human IL-17 (human, UniProt Q16552 20-155, limits assumed); test: cell-based or functional assay
T1 sequence: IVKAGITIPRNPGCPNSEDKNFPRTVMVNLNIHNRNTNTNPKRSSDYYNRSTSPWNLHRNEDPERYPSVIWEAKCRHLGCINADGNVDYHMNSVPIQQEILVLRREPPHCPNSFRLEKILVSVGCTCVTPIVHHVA

[2] = molecular target: T2, human IL-17D (human, UniProt Q8TAD2 18-202, limits assumed); test: ELISA, antigen coated on plate
T2 sequence (looked up): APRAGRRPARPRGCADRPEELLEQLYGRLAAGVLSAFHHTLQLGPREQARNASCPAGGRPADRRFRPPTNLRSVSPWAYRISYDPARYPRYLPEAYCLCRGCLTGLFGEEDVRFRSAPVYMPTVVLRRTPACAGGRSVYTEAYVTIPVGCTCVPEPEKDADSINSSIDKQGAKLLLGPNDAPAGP
Procedure: (§1) In an exemplary assay, ELISA plate wells (Nunc Immuno Maxisorp) are coated with 100 μl (0.5 ng/ml in 1× coating buffer (BioFx)) of IL-17 family member proteins (R&D Systems) sealed and incubated overnight at 4° C. The solution in the well is removed by flicking and blocking buffer (200 μl 1.5% BSA in PBS) is added. The plates are incubated on a rotating shaker for 30 minutes at room temperature. Then 100 μl of an antibody to be tested is added per well at varying concentrations (e.g., 2, 0.4, 0.08, 0.016, 0.0032 and 0 μg/ml). The plates are again incubated overnight (4° C.) followed by warming on a rotating shaker (60 min room temp). Each plate-well is then washed five times with buffer (1× Ish buffer, BioFX). After washing, an appropriate commercially available HRP-conjugated secondary antibody (1:2000 in PBS with 1.5% BSA) is added (100 μl/well). Plates are re-incubated on a rotating shaker (60 min. room temp.) followed by buffer washing (5×) as described above. The colorimetric signal is developed by adding TMB (100 μl/well) until saturation (approx 3-5 min.) then further development is ended by adding stop solution (100 μl/well, BioFX). The color signal is measured at 450 nm absorbance using any appropriate ELISA plate reader. The degree of binding is proportional to color signal production.

[3] = molecular target: T3, mouse IL-17 (murine, UniProt Q62386 26-158, limits assumed); test: ELISA, antigen coated on plate
T3 construct: also called murine IL-17
T3 sequence: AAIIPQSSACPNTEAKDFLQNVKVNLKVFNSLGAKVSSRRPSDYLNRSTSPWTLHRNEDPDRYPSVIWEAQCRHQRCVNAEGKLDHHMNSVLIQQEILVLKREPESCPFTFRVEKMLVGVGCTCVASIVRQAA
Procedure: as §1

[4] = molecular target: T4, human IL-17C (human, UniProt Q9P0M4 19-197); test: ELISA, antigen coated on plate
T4 sequence (looked up): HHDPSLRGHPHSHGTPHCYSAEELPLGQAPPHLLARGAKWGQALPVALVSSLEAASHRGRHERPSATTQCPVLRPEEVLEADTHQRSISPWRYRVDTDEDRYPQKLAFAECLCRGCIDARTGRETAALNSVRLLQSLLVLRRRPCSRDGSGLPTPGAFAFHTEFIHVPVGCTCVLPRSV
Procedure: as §1

[5] = molecular target: T5, human IL-17E (human, UniProt Q9H293 33-177); test: ELISA, antigen coated on plate
T5 sequence (looked up): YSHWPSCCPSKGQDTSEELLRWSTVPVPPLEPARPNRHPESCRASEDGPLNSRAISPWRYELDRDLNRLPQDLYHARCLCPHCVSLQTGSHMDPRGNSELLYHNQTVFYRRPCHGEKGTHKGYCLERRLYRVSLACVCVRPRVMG
Procedure: as §1

[6] = molecular target: T6, human IL-17F (human, UniProt Q96PD4 31-163); test: ELISA, antigen coated on plate
T6 sequence (looked up): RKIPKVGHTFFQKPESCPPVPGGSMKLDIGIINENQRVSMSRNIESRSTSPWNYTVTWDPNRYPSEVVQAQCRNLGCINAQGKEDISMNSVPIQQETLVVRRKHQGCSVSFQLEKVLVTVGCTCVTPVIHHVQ
Procedure: as §1

[7] = molecular target: T7, human IL-22 (human, UniProt Q9GZX6 34-179); test: ELISA, antigen coated on plate
T7 construct: Negative control antigen
T7 sequence (looked up): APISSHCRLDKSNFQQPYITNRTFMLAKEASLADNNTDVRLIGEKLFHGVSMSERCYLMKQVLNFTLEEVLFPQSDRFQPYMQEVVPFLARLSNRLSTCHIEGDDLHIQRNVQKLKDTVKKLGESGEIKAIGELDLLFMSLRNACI
Procedure: as §1

[8] = molecular target: T8, human IL-17B (human, UniProt Q9UHF5 21-180); test: ELISA, antigen coated on plate
T8 sequence (looked up): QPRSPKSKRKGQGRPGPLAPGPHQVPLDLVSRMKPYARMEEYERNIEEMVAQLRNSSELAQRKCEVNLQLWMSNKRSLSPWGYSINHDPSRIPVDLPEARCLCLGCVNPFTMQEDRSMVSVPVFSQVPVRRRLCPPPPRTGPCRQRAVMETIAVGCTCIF
Procedure: as §1

[9] = molecular target: T1, human IL-17; test: SPR (BIACORE 2000), mAb captured on Protein A, IL-17 injected, 25 C, 1:1 with mass transfer model;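 further: CM4 chip with immobilized Protein A, HBS-EP running buffer pH 7.4, IL-17 titrated downward from 10 nM in twofold steps, 20 min dissociation phase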
Procedure: (§2) A BIACORE® 2000 instrument is used to measure antigen-antibody binding kinetics and affinity. The instrument utilizes the optical properties of surface plasmon resonance to detect alteration in protein concentration of interacting molecules within a dextran biosensor matrix. Except as noted, all reagents and materials are purchased from BIACORE® AB. All measurements are performed at 25° C. Samples are resuspended in HBS-EP buffer to a final concentration of 2 μg/ml (150 mM sodium chloride, 3 mM EDTA, 0.005% (w/v) surfactant P-20, and 10 mM HEPES, pH 7.4). Protein A is immobilized on flow cells 1 to 4 of a CM4 sensor chip at a level of 500 response units using an amine coupling kit.
(§3) Binding is evaluated using multiple analytical cycles. […] Association and dissociation rates for each cycle are evaluated using a “1:1 with mass transfer” binding model in the BIAevaluation software.

[10] = molecular target: New Zealand white rabbit IL-17 (rabbit); test: SPR (BIACORE 2000), mAb captured on Protein A; biphasic, heterogeneous ligand model, second of two affinities
[11] = molecular target: New Zealand white rabbit IL-17 (rabbit); test: SPR (BIACORE 2000), mAb captured on Protein A; biphasic, heterogeneous ligand model, first of two affinities
[12] = molecular target: T9, cynomolgus monkey IL-17 (cynomolgus monkey, UniProt Q16552 24-155 (human entry), limits assumed); test: SPR (BIACORE 2000), mAb captured on Protein A, IL-17 injected, 25 C, 1:1 with mass transfer model;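 further: CM4 chip with immobilized Protein A, HBS-EP running buffer pH 7.4, IL-17 titrated downward from 10 nM in twofold steps, 20 min dissociation phase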
T9 construct: Not commercially available; cloned and expressed; also called CYNO IL-17
T9 chain: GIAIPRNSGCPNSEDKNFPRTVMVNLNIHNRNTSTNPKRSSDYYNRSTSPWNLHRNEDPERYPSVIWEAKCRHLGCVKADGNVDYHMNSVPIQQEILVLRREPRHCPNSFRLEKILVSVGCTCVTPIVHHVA
Procedure: as §2, §3

Sequence of New Zealand white rabbit IL-17 (rabbit) (chain, as listed by the source limits assumed, form in doubt): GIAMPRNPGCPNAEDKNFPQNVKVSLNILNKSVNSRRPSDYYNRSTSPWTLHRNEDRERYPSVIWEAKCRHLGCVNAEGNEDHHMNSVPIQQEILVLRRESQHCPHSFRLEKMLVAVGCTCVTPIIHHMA

IgG4 negative control (antibody)
AVG GROα, pg/ml at 2.56 pM antibody (60 ng/ml IL-17, HT-29 cells) [1]: 1240 pg/ml | AVG GROα, pg/ml at 12.8 pM antibody (60 ng/ml IL-17, HT-29 cells) [1]: 1350 pg/ml | AVG GROα, pg/ml at 64.0 pM antibody (60 ng/ml IL-17, HT-29 cells) [1]: 1380 pg/ml | AVG GROα, pg/ml at 320.0 pM antibody (60 ng/ml IL-17, HT-29 cells) [1]: 1390 pg/ml | AVG GROα, pg/ml at 1,600.0 pM antibody (60 ng/ml IL-17, HT-29 cells) [1]: 1370 pg/ml | AVG GROα, pg/ml at 8,000.0 pM antibody (60 ng/ml IL-17, HT-29 cells) [1]: 1420 pg/ml | AVG GROα, pg/ml at 40,000.0 pM antibody (60 ng/ml IL-17, HT-29 cells) [1]: 1300 pg/ml

B1: Fab 121 (Fab, V domains shown)
VH: QVQLVQSGAEVKKPGSSVKVSCKASGYSFTDYHISWVRQAPGQGLEWMGVINPEYGTTDYNQRFKGRVTITADESTSTAYMELSSLRSEDTAVYYCARYDYFTGTGAYWGQGTLVTVSS
VL: DIVMTQTPLSLSVTPGQPASISCRSSQSLKHSRGNTFLHWYLQKPGQSPQLLIYKVSNRFIGVPDRFSGSGSGTDFTLKISRVEAEDVGVYYCSQSTHYPFTFGQGTKLEIK
notes: constant domains are not specified
binding result [2]: no binding | binding result [3]: no binding | binding result [4]: no binding | binding result [5]: no binding | binding result [6]: no binding | binding result [7]: no binding | binding result [8]: no binding

B2: mAb 131 (full-length, IgG4 Fc region) (antibody, V domains shown)
VH: QVQLVQSGAEVKKPGSSVKVSCKASGYSFTDYHIHWVRQAPGQGLEWMGVINPEYGTTDYNQRFKGRVTITADESTSTAYMELSSLRSEDTAVYYCARYDYFTGTGVYWGQGTLVTVSS
VL: DIVMTQTPLSLSVTPGQPASISCRSSKSLVHSRGNTYLHWYLQKPGQSPQLLIYKVSNRFIGVPDRFSGSGSGTDFTLKISRVEAEDVGVYYCSQSTHYPFTFGQGTKLEIK
Kd [9]: 2.9 pM | koff [9]: 1.6e-05 s⁻¹ | kon [9]: 5.4e+06 M⁻¹ s⁻¹

B3: mAb 121 (full-length, IgG4 Fc region) (antibody, V domains shown)
VH: QVQLVQSGAEVKKPGSSVKVSCKASGYSFTDYHISWVRQAPGQGLEWMGVINPEYGTTDYNQRFKGRVTITADESTSTAYMELSSLRSEDTAVYYCARYDYFTGTGAYWGQGTLVTVSS
VL: DIVMTQTPLSLSVTPGQPASISCRSSQSLKHSRGNTFLHWYLQKPGQSPQLLIYKVSNRFIGVPDRFSGSGSGTDFTLKISRVEAEDVGVYYCSQSTHYPFTFGQGTKLEIK
notes: Full-length mAb with an IgG4 Fc region
Kd [10]: 1500 pM | koff [10]: 0.021 s⁻¹ | kon [10]: 1.7e+07 M⁻¹ s⁻¹ | Kd [11]: 510 pM | koff [11]: 0.0004 s⁻¹ | kon [11]: 800000 M⁻¹ s⁻¹ | Kd [9]: 1.6 pM | koff [9]: 1.5e-05 s⁻¹ | kon [9]: 1e+07 M⁻¹ s⁻¹ | Kd [12]: 1.1 pM | koff [12]: 7e-06 s⁻¹ | kon [12]: 7.8e+06 M⁻¹ s⁻¹ | decrease of the mean mouse KC level after human IL-17 injection in mice, 20 µg/mouse, compared to a control antibody [1]: ~3 fold

B4: mAb 118 (full-length, IgG4 Fc region) (antibody, V domains shown)
VH: QVQLVQSGAEVKKPGSSVKVSCKASGYSFTDYHISWVRQAPGQGLEWMGVINPMYGTTDYNQRFKGRVTITADESTSTAYMELSSLRSEDTAVYYCARYDYYTGTGVYWGQGTLVTVSS
VL: DIVMTQTPLSLSVTPGQPASISCRSSQSLVHSRGNTFLHWYLQKPGQSPQLLIYKVSNRFIGVPDRFSGSGSGTDFTLKISRVEAEDVGVYYCSQSTHYPFTFGQGTKLEIK
Kd [9]: 3.9 pM | koff [9]: 2e-05 s⁻¹ | kon [9]: 5e+06 M⁻¹ s⁻¹

B5: Fab 126 (Fab, V domains shown)
VH: QVQLVQSGAEVKKPGSSVKVSCKASGYSFTDYHIHWVRQAPGQGLEWMGVINPMYGTTDYNQRFKGRVTITADESTSTAYMELSSLRSEDTAVYYCARYDYFTGTGVYWGQGTLVTVSS
VL: DIVMTQTPLSLSVTPGQPASISCRSSRSLVHSRGNTYLHWYLQKPGQSPQLLIYKVSNRFIGVPDRFSGSGSGTDFTLKISRVEAEDVGVYYCSQSTHLPFTFGQGTKLEIK
notes: as for B1
binding result [2]: no binding | binding result [3]: no binding | binding result [4]: no binding | binding result [5]: no binding | binding result [7]: no binding | binding result [8]: no binding

B6: mAb 103 (full-length, IgG4 Fc region) (antibody, V domains shown)
VH: QVQLVQSGAEVKKPGSSVKVSCKASGYSFTDYHIHWVRQAPGQGLEWMGVINPEYGTTDYNQRFKGRVTITADESTSTAYMELSSLRSEDTAVYYCARYDYFTGTGAYWGQGTLVTVSS
VL: DIVMTQTPLSLSVTPGQPASISCRSSQSLRHSRGNTYLHWYLQKPGQSPQLLIYKVSNIFSGVPDRFSGSGSGTDFTLKISRVEAEDVGVYYCSQSTHYPFTFGQGTKLEIK
notes: also called full-length mAb 103
Kd [10]: 18100 pM | koff [10]: 0.192 s⁻¹ | kon [10]: 1.06e+07 M⁻¹ s⁻¹ | Kd [11]: 2000 pM | koff [11]: 0.00036 s⁻¹ | kon [11]: 180000 M⁻¹ s⁻¹ | Kd [9]: 1.4 pM | koff [9]: 1.5e-05 s⁻¹ | kon [9]: 1.1e+07 M⁻¹ s⁻¹ | Kd [12]: 1.3 pM | koff [12]: 1.1e-05 s⁻¹ | kon [12]: 8.8e+06 M⁻¹ s⁻¹

B7: mAb 104 (full-length, IgG4 Fc region) (antibody, V domains shown)
VH: QVQLVQSGAEVKKPGSSVKVSCKASGYSFTDYHIHWVRQAPGQGLEWMGVINPEYGTTDYNQRFKGRVTITADESTSTAYMELSSLRSEDTAVYYCARYDYFTGTGAYWGQGTLVTVSS
VL: DIVMTQTPLSLSVTPGQPASISCRSSKSLVHSRGNTFLHWYLQKPGQSPQLLIYKVSTRFSGVPDRFSGSGSGTDFTLKISRVEAEDVGVYYCSQSTHYPFTFGQGTKLEIK
notes: also called full-length mAb 104
Kd [10]: 20000 pM | koff [10]: 0.07 s⁻¹ | kon [10]: 4e+06 M⁻¹ s⁻¹ | Kd [11]: 1900 pM | koff [11]: 0.00018 s⁻¹ | kon [11]: 100000 M⁻¹ s⁻¹ | Kd [9]: 1.7 pM | koff [9]: 1.1e-05 s⁻¹ | kon [9]: 7.7e+06 M⁻¹ s⁻¹ | Kd [12]: 0.5 pM | koff [12]: 5e-06 s⁻¹ | kon [12]: 9.4e+06 M⁻¹ s⁻¹

B8: mAb 126 (full-length, IgG4 Fc region) (antibody, V domains shown)
VH: QVQLVQSGAEVKKPGSSVKVSCKASGYSFTDYHIHWVRQAPGQGLEWMGVINPMYGTTDYNQRFKGRVTITADESTSTAYMELSSLRSEDTAVYYCARYDYFTGTGVYWGQGTLVTVSS
VL: DIVMTQTPLSLSVTPGQPASISCRSSRSLVHSRGNTYLHWYLQKPGQSPQLLIYKVSNRFIGVPDRFSGSGSGTDFTLKISRVEAEDVGVYYCSQSTHLPFTFGQGTKLEIK
notes: as for B3
Kd [12]: 0.8 pM | IC50, IL-17-induced GROα secretion from HT-29 cells [1]: ~560 pM
